One block for each molecule: values may come before it.
How the values were obtained:
[1] = molecular target: Methanocaldococcus jannaschii GINS, wild type, non-His-tagged (Methanocaldococcus jannaschii); assay: SEC
[2] = molecular target: MjGINS domain A (residues 21-115), as crystallized (Methanocaldococcus jannaschii); assay: crystal structure
[3] = molecular target: MjGINS-M, dimeric mutant of MjGINS (K58A, K74A, K78A, I101A, I105A) (Methanocaldococcus jannaschii); assay: SEC
crystal structure = molecular target: the molecule itself; assay: crystal structure
SEC = molecular target: the molecule itself; assay: SEC

Molecule: MjGINS-M, dimeric mutant of MjGINS (K58A, K74A, K78A, I101A, I105A) (natural protein)
stoichiometry N [3]: 2

B1: Methanocaldococcus jannaschii RecJ2, tag-free, for crystallization (enzyme)
chain: MMEKLKEIEKVTKAIKEKILNHYGYIRVITHHDTDGLSSGGILAKMLMRTNKLFHLTVVEHLSKEVIEKLAKENEVNKPLFIFADMGSGQIEEIIKHNFNAIILDHHPPVIKDSFINENIIQLNPHIFGVDGSREITASGVCYLVAREFGYYDLSVLAIVGIIGDMQYNPLLGLNKFIVNEAREYRYVKIMNDIVYNIYDVEIYKAIAYCTKPYIPDLASEGKAFKFLKDIGIDPNKKQLDDTDKKKLLSAIIFKYPKIENLLIDRYLIEHKVRDAFLLSEMLNAVGRNGLFAVGIGICLEDDECIKIGNQILWEYKKNLINELKSVKLKKLNNIYYFEGKKGMIGIIASILVDDKPVIGYHIEGDIAKFSARGNRDLVNRGLNLSVAMAVAKEFGGNGGGHDVASGAVVSKDKVQEFLKRVDEIIGEQLRR
stoichiometry N (crystal structure): 2

B2: Methanocaldococcus jannaschii RecJ2, wild type, His-tagged (enzyme)
chain: B1 chain
stoichiometry N (SEC): 2

Other lines, results leading:

stoichiometry N [1]: 4
Molecule: Methanocaldococcus jannaschii GINS, wild type, non-His-tagged (natural protein)

stoichiometry N [2]: 4
Molecule: MjGINS domain A (residues 21-115), as crystallized (domain or fragment)

Source: article PMC11193018 (The Journal of Biological Chemistry, 2024)
